Measured values as given in paper doi:10.1101/2020.10.28.359810 (bioRxiv, 2020).
Each block holds one molecule with its values, some of them ahead of it.

Legend:
[1] = target: T1, TLX ligand-binding domain (UniProt Q9Y466 155-385); test: BLI
[2] = target: T1, TLX ligand-binding domain; test: AlphaScreen or HTRF

T1 sequence (Q9Y466 155-385): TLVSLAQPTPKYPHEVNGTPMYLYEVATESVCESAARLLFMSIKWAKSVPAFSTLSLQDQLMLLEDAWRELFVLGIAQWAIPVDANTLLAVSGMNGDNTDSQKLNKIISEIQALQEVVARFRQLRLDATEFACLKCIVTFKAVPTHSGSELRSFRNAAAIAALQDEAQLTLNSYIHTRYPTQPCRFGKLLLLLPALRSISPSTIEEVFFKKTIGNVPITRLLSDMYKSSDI

Kd [1]: 14.2 µM
Molecule: atrophin corepressor peptide

EC50 [2]: 1.3 µM
Molecule: untagged atrophin peptide

EC50 [2]: 3.3 µM
B1: receptor-interaction domain from NCOA3 (domain or fragment, UniProt Q9Y6Q9 621-821, looked up)
chain: LLQLLTCSSDDRGHSSLTNSPLDSSCKESSVSVTSPSGVSSSTSGGVSSTSNMHGSLLQEKHRILHKLLQNGNSPAEVAKITAEATGKDTSSITSCGDGNVVKQEQLSPKKKENNALLRYLLDRDDPSDALSKELQPQVEGVDNKMSQCTSSTIPSSSQEKDPKIKTETSEEGSGDLDNLDAILGDLTSSDFYNNSISSNG
